Data reported in patent publication US20260035484A1 (LONGBIO PHARMA SUZHOU, published 2026).

What was measured:
[1] = biological target: T1, human IgE (abcam, Product code ab65866) (human, UniProt P01854-1 1-428); experiment: MSD-SET, solution equilibrium titration
T1 construct: also called antigen human IgE
Protocol: The solution equilibrium titration (SET) was performed in PBS+0.1% of IgG-free BSAbuffer (PBSF), where the antigen human IgE (purchased from: abcam, Product code: ab65866) was kept constant at 10-100 pM and incubated with 3-fold serial dilutions of humanized antibodies starting from 0.1-100 nM. […] 20 nM of antibodies diluted in PBS were coated onto standard binding MSD-ECL plates (purchased from MSD, Product code: L15XA-3) at 4° C. overnight. The MSD-ECL plates were blocked with 1% of Casein for 30 min while shaking at 700 rpm, and then washed with washing buffer (PBS+0.05% Tween 20) three times. The samples incubated with 2-fold serial dilutions of antigen human IgE and humanized antibodies were added into the MSD-ECL plates, incubated for 150 s while shaking at 700 rpm, and then washed once. […] 1× reading buffer T (purchased from MSD, Product code: R92TC-1) was added to read on an MSD Sector Imager instrument (Model: MESO QuickPlex SQ 120). In a Prism-GraphPad6 software, the percentage of free antigens was plotted as a function of titrated antibodies and fitted into a quadratic equation to extract the KD values.

[2] = biological target: T2, biotin-labelled human IgE-Fc (human, UniProt P01854 104-427, biotin-labelled); experiment: blocking ELISA: inhibition of biotin-labelled human IgE-Fc binding to coated FcεRIα-Fc
T2 construct: also called recombinant human IgE-Fc protein; Fc region (CH2-4) protein of human IgE
Protocol: (§1) The method specifically included diluting the recombinantly expressed human FcεRIα-Fc protein (with its amino acid sequence as set forth in SEQ ID NO: 51) with PBS to a final concentration of 1 μg/mL, coating the ELISA plates (purchased from Corning, Product code: 42592) at 100 μL per well, and keeping at 4° C. overnight. The next day, the coating solution was discarded. The wells were blocked with 2.5% skimmed milk dissolved in PBS for 1 hour and washed with PBS containing 0.05% Tween-20. […] After discarding the supernatant, the wells were washed with PBS containing 0.05% Tween-20 and detected by using HRP-labelled streptavidin (purchased from Sangon Biotech, Product code: D111054-0001).

[3] = biological target: T2, biotin-labelled human IgE-Fc; experiment: blocking ELISA: FcεRIα-Fc coated, biotin-labelled human IgE-Fc (100 ng/mL) premixed with the antibody, streptavidin-HRP; blocked ligand FcεRIα-Fc
Protocol: as §1

[4] = biological target: T2, biotin-labelled human IgE-Fc; experiment: blocking ELISA, inhibition ratio: FcεRIα-Fc coated, biotin-labelled human IgE-Fc (100 ng/mL) premixed with the antibody, streptavidin-HRP; blocked ligand FcεRIα-Fc
Protocol: as §1, with “[…],” for “μg/mL,”, “diluted with” for “detected by using”, “D111054-0001) at 1:1000 for detection. The inhibition ratio of different antibodies at different concentrations was calculated following the formula below: Inhibition ratio at antibody concentration of X (%)=(OD₄₅₀ readout at antibody concentration of 0-OD₄₅₀ readout at antibody concentration of X)/OD₄₅₀ readout at antibody concentration of 0×100.” for “D111054-0001).”

[5] = biological target: T2, biotin-labelled human IgE-Fc; experiment: blocking ELISA: FcεRIα-Fc coated, biotin-labelled human IgE-Fc (1 µg/mL) premixed with the antibody, streptavidin-HRP; blocked ligand FcεRIα-Fc
Protocol: The next day, the coating solution was discarded. The wells were blocked with 2.5% skimmed milk dissolved in PBS for 1 hour and washed with PBS containing 0.05% Tween-20. […] After discarding the supernatant, the wells were washed with PBS containing 0.05% Tween-20 and diluted with HRP-labelled streptavidin (purchased from Sangon Biotech, Product code: D111054-0001) at 1:1000 for detection.

T2 sequence (P01854 other isoform, or with tags, fused parts or gaps limits assumed): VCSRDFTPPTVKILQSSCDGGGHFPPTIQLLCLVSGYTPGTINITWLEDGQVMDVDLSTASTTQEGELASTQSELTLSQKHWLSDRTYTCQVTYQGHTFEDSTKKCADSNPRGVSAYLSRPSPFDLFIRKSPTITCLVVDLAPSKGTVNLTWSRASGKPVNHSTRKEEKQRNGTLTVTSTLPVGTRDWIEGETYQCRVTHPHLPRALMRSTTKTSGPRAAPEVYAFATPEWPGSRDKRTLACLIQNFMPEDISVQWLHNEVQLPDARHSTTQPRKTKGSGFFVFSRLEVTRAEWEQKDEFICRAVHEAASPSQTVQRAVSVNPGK
T1 sequence (P01854 other isoform, or with tags, fused parts or gaps): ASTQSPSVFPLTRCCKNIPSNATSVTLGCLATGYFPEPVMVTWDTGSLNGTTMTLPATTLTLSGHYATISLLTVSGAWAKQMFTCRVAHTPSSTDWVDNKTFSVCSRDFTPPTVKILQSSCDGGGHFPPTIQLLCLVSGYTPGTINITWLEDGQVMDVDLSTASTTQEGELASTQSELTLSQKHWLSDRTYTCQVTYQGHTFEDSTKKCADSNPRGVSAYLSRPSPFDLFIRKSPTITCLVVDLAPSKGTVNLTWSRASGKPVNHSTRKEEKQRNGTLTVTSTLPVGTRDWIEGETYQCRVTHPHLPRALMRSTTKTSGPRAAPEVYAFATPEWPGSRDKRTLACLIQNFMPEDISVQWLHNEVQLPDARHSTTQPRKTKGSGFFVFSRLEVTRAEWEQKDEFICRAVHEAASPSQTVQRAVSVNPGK

Row | Binder | Kd [1] [nM] | IC50 [2] | IC50 (read off the curve) [3] [µg/mL] | IC50 (read off the curve) [4] [µg/mL] | IC50 (read off the curve) [5] [µg/mL]
1 | Humanized antibody SE2 (antibody, human IgG1, kappa, V domains shown, also called SE2 humanized antibody; humanized SE2) VH: QVQLQESGPGLVKPSQTLSLTCTVSGYSITSDYAWNWIRQPPGNGLEWMGYISYSGSTRYNPSLKSRITISRDTSKNQFSLKLSSVTAADTAVYFCVYGSSQRFFDYWGQGTLVTVSS VL: DILMTQSPDSLAVSLGERATINCKASQDVSIDVAWYQQKPGQPPKLLIYSASFRYAGVPDRFSGSGSGTDFTLTISSLQAEDVAVYYCQQHYSLFTFGSGTKLEIKR | 0.0109 | ~0.417 µg/mL | – | – | –
2 | Humanized antibody SE5 (antibody, human IgG1, kappa, V domains shown, also called SE5 humanized antibody; humanized SE5) VH: QVQLQESGPGLVKPSQTLSLTCTVSGYSITSDYAWNWIRQPPGNGLEWLGYINYSGTTRYNPSLKSRITISRDTSKNQFSLKLSSVTAADTAVYFCVYGSSQRFFDYWGQGTLVTVSS VL: DIVMTQSPDSLAVSLGERATINCKASQDVSIDVAWYQQKPGQPPKLLIYSASWRYAGVPDRFSGSRSGTDYTLTISSLQAEDVAVYYCQQHYNLFTFGSGTKLEIKR | 0.01 | ~0.266 nM | ~0.06 | – | –
3 | chimeric antibody SE2 (mouse SE2 variable regions, human IgG1/kappa constant regions) (antibody, V domains shown, also called chimeric recombinant monoclonal antibody) VH: DVQLLESGPGLVKPSQSLSLTCTVTGYSITSDYAWNWIRQFPGNKLEWMGYISYSGSTRYNPSLKSRISISRDTSKNQFFLQLNSVTSEDTATYFCVYGSSQRFFDYWGQGTTLTVSS VL: DILMTQSHKFMSTSIGDRVSITCKASQDVSIDVAWYHQKPGQSPKLLIYSASFRYAGVPDRFTGSGSGTDFTLTISSVQAEDLAVYYCQQHYSLFTFGSGTKLEIKR | – | – | – | ~0.2 | –
4 | mouse-derived monoclonal antibody SE2 (antibody, V domains shown, the cloning primer was homologous to the mouse IgG1 heavy chain constant region; also called SE2 mouse hybridoma antibody; mouse-derived parent antibody of SE2) VH: DVQLLESGPGLVKPSQSLSLTCTVTGYSITSDYAWNWIRQFPGNKLEWMGYISYSGSTRYNPSLKSRISISRDTSKNQFFLQLNSVTSEDTATYFCVYGSSQRFFDYWGQGTTLTVSS VL: DILMTQSHKFMSTSIGDRVSITCKASQDVSIDVAWYHQKPGQSPKLLIYSASFRYAGVPDRFTGSGSGTDFTLTISSVQAEDLAVYYCQQHYSLFTFGSGTKLEIK | – | – | – | ~0.2 | ~0.3

Now from value to binder:

Row | Kd [1] [nM] | IC50 [2] | IC50 (read off the curve) [3] [µg/mL] | IC50 (read off the curve) [4] [µg/mL] | IC50 (read off the curve) [5] [µg/mL] | Binder
5 | – | – | ~0.07 | ~0.08 | ~0.2 | mouse-derived monoclonal antibody SE5 (antibody, V domains shown, the cloning primer was homologous to the mouse IgG1 heavy chain constant region; also called SE5 mouse hybridoma antibody; mouse-derived parent antibody of SE5) VH: DVQLLESGPGLVKPSQSLSLTCTVTGYSITSDYAWNWIRQFPGNKLEWLGYINYSGTTRYNPSLKSRISISRDTSKNQFFLQLNSVTSEDTATYFCVYGSSQRFFDYWGQGTTLTVSS VL: DIVMTQSHKFMSTSVGDRVSITCKASQDVSIDVAWYQQKPGQSPKLLIYSASWRYAGVPDRFTGSRSGTDYTLTISSVQAEDLAVYYCQQHYNLFTFGSGTKLEIQ
6 | – | – | – | ~0.08 | – | chimeric antibody SE5 (mouse SE5 variable regions, human IgG1/kappa constant regions) (antibody, V domains shown, also called chimeric recombinant monoclonal antibody) VH: DVQLLESGPGLVKPSQSLSLTCTVTGYSITSDYAWNWIRQFPGNKLEWLGYINYSGTTRYNPSLKSRISISRDTSKNQFFLQLNSVTSEDTATYFCVYGSSQRFFDYWGQGTTLTVSS VL: DIVMTQSHKFMSTSVGDRVSITCKASQDVSIDVAWYQQKPGQSPKLLIYSASWRYAGVPDRFTGSRSGTDYTLTISSVQAEDLAVYYCQQHYNLFTFGSGTKLEIQR
